# Reference: US20160333422A1 (UNITED STATES OF AMERICA AS REPRESENTED BY THE SECRETARY …, published 2016)
# T1: NY-BR-1 expressed from a transfected vector/plasmid in target cells (Homo sapiens (Human), UniProt Q9BXX3 1-1397)
# T1 sequence: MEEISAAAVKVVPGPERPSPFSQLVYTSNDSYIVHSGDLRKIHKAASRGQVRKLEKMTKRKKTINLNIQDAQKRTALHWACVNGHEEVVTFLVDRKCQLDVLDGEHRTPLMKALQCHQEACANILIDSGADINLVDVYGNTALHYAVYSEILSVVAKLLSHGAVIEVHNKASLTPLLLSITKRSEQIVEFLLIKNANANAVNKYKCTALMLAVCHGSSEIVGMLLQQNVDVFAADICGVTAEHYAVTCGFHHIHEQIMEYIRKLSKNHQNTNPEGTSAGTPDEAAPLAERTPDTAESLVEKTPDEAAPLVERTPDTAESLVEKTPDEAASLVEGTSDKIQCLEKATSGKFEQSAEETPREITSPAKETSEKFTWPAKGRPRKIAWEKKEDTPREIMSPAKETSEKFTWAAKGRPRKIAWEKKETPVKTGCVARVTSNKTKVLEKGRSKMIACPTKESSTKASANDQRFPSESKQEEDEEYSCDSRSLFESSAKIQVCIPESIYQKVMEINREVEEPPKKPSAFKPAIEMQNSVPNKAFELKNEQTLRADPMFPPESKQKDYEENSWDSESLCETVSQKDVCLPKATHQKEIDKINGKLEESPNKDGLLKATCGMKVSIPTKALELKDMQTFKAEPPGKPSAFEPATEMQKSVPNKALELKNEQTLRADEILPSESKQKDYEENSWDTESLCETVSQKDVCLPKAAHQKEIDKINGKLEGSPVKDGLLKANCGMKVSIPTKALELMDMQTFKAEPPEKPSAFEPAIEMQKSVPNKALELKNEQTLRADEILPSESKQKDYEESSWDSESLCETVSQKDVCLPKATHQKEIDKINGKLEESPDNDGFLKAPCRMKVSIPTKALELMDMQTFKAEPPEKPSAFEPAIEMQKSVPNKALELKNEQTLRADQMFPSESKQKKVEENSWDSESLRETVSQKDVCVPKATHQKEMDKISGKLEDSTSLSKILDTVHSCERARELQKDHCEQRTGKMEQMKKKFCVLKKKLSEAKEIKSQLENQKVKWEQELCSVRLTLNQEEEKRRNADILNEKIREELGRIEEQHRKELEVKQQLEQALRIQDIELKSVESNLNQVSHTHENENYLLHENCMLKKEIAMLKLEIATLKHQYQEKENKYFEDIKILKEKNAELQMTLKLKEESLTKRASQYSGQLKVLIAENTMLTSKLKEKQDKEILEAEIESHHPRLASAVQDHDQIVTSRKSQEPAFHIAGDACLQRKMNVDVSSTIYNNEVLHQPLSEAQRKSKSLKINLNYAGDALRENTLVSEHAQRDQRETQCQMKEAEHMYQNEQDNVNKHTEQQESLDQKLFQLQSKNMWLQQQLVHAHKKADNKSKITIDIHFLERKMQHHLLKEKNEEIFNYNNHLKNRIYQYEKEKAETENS
# How the values were obtained:
# [1] = biological target: NYBR1.1, an isoform of NYBR1, expressed from a plasmid in Cos7 cells, Q9BXX2; experiment: cell-based or functional assay
# [2] = biological target: T1, NY-BR-1 expressed from a transfected …; experiment: cell-based or functional assay
# NYBR1.1, an isoform of NYBR1, expressed from a plasmid in Cos7 cells, Q9BXX2, sequence (Q9BXX2 whole entry, canonical isoform): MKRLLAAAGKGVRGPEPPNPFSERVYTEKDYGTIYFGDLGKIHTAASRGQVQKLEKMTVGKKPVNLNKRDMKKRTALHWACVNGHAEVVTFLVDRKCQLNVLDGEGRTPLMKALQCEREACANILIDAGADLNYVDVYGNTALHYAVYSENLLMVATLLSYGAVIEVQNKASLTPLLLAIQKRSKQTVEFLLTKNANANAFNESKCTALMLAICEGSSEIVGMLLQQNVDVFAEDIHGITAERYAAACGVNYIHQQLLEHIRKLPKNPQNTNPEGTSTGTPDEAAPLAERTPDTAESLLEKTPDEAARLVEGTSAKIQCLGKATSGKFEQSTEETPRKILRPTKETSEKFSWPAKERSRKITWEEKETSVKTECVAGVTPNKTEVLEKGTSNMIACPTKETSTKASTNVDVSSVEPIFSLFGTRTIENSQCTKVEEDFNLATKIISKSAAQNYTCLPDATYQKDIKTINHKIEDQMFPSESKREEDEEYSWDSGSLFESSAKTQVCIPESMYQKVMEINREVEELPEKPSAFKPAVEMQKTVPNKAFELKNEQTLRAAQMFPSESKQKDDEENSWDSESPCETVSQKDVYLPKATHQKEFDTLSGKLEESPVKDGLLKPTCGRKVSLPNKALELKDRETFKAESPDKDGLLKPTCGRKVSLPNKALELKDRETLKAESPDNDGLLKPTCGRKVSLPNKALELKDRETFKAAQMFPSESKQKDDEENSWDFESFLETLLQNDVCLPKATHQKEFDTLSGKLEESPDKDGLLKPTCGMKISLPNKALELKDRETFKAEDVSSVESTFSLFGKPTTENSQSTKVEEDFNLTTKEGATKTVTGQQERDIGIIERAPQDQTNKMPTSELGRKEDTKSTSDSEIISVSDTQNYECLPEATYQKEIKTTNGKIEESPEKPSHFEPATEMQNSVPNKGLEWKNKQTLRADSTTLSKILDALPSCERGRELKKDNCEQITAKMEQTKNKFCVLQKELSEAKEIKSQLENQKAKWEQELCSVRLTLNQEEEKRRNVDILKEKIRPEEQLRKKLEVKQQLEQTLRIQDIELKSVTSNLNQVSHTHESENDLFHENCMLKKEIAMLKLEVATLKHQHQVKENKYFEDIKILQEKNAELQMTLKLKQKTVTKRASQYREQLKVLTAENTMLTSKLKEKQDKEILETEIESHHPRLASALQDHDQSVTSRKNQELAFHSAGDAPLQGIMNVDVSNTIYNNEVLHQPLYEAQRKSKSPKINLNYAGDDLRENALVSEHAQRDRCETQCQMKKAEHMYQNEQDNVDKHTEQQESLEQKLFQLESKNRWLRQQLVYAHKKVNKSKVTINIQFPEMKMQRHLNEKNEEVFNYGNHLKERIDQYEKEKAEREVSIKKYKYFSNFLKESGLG
IFN-γ secretion (pg/ml) upon co-culture with Cos7 cell line transfected with plasmid NYBR 1.1; Patient 5 [1] [pg/mL],IFN-γ secretion (pg/ml) upon co-culture with Cos7 cell line transfected with plasmid NYBR 1.1; Patient 6 [1] [pg/mL],IFN-γ secretion (pg/ml) upon co-culture with Cos7 cell line transfected with plasmid NYBR 1.1; Patient 7 [1] [pg/mL],IFN-γ secretion (pg/ml) upon co-culture with Cos7 cell line transfected with plasmid NYBR1; Patient 5 [2] [pg/mL],IFN-γ secretion (pg/ml) upon co-culture with Cos7 cell line transfected with plasmid NYBR1; Patient 6 [2] [pg/mL],IFN-γ secretion (pg/ml) upon co-culture with Cos7 cell line transfected with plasmid NYBR1; Patient 7 [2] [pg/mL],Binder
0,14,26,51,48,71,third generation anti-NY-BR-1 CAR (NYBR1-28BBZ) (other) VQLQESGPDLVKPSQSLSLTCTVTGYSITSGYSWHWIRQFPGNKLEWMGYIHYSGDTDYNPSLKSRFSITRDTSKNQFFLQLNSVTTEDTATYYCATPGGFVYWGQGTLVTVSAGGGGSGGGGSGGGGSDVVMTQTPLTLSVTIGQPASISCKSSQSLLDSDGKTYLHWLLQRPGQSPKRLIFLVSKLDSGVPDRFTGSGSGTDFTLKISRVEAEDLGVYYCWQGTHFPQTFGGGTKLEIKAAAFVPVFLPAKPTTTPAPRPPTPAPTIASQPLSLRPEACRPAAGGAVHTRGLDFACDIYIWAPLAGTCGVLLLSLVITLYCNHRNRSKRSRLLHSDYMNMTPRRPGPTRKHYQPYAPPRDFAAYRSRFSVVKRGRKKLLYIFKQPFMRPVQTTQEEDGCSCRFPEEEEGGCELRVKFSRSADAPAYQQGQNQLYNELNLGRREEYDVLDKRRGRDPEMGGKPRRKNPQEGLYNELQKDKMAEAYSEIGMKGERRRGKGHDGLYQGLSTATKDTYDALHMQALPPR
153,51,518,1110,555,3590,second generation anti-NY-BR-1 CAR (NYBR1-28Z) (other) VQLQESGPDLVKPSQSLSLTCTVTGYSITSGYSWHWIRQFPGNKLEWMGYIHYSGDTDYNPSLKSRFSITRDTSKNQFFLQLNSVTTEDTATYYCATPGGFVYWGQGTLVTVSAGGGGSGGGGSGGGGSDVVMTQTPLTLSVTIGQPASISCKSSQSLLDSDGKTYLHWLLQRPGQSPKRLIFLVSKLDSGVPDRFTGSGSGTDFTLKISRVEAEDLGVYYCWQGTHFPQTFGGGTKLEIKAAAIEVMYPPPYLDNEKSNGTIIHVKGKHLCPSPLFPGPSKPFWVLVVVGGVLACYSLLVTVAFIIFWVRSKRSRLLHSDYMNMTPRRPGPTRKHYQPYAPPRDFAAYRSRVKFSRSADAPAYQQGQNQLYNELNLGRREEYDVLDKRRGRDPEMGGKPRRKNPQEGLYNELQKDKMAEAYSEIGMKGERRRGKGHDGLYQGLSTATKDTYDALHMQALPPR
527,411,1260,1620,929,3290,fourth generation anti-NY-BR-1 CAR (NYBR1 ScFv BBZ) (other) VQLQESGPDLVKPSQSLSLTCTVTGYSITSGYSWHWIRQFPGNKLEWMGYIHYSGDTDYNPSLKSRFSITRDTSKNQFFLQLNSVTTEDTATYYCATPGGFVYWGQGTLVTVSAGGGGSGGGGSGGGGSDVVMTQTPLTLSVTIGQPASISCKSSQSLLDSDGKTYLHWLLQRPGQSPKRLIFLVSKLDSGVPDRFTGSGSGTDFTLKISRVEAEDLGVYYCWQGTHFPQTFGGGTKLEIKAAAFVPVFLPAKPTTTPAPRPPTPAPTIASQPLSLRPEACRPAAGGAVHTRGLDFACDIYIWAPLAGTCGVLLLSLVITLYCNHRNRFSVVKRGRKKLLYIFKQPFMRPVQTTQEEDGCSCRFPEEEEGGCELRVKFSRSADAPAYQQGQNQLYNELNLGRREEYDVLDKRRGRDPEMGGKPRRKNPQEGLYNELQKDKMAEAYSEIGMKGERRRGKGHDGLYQGLSTATKDTYDALHMQALPPR
